{"source": "the DeepSol protein solubility set", "data": [{"experiment": "soluble on expression in E. coli; label from the status in PepcDB or PDB records", "values": [{"sequence": "MSLEAKECKVQDILTENKKFIIPSYQRPYSWTVDNAEQLIDDIYKSSQSEENEYFIGSMICINKGQNQYEVVDGQQRLTTLSIIVSELKKIIPIQGIKDDLQKRVLPIDVYSDETDEPRLIVRKKEYDLYKYYILQDSKDYKPEKPSDTELVFISNAETIRDYLLRLSVDELKLLAKYILQNVYIVFVQTDDFASSFRLFNVLNSRGLPLSNADLLKNALFESASTHNKKSEQIESAWSQIEDMVGVRRLDKFLTLHKLSEKKDRDRVLQKGFEAFIENLQQQFDGDAIAMSLMLVNSAKNYTKILENDFEHSSIRRKIASLSNLGVDEWIPPVMAFMNRMARTEDFNLDDFSQFITAFEKVYMHGWLKKQIKSQREMVCYSALVAINNDMSFDSVINQINQHADNSGFIAALDEDLYEPRPNQVNLIKAILLRLDMEQQDESVIKTYTGRITIEHILPQALVNEYWINRFQPQEHVYWLHKIGNLTLISGSKNSEAQHYDFIKKKSIYEKLNSKSSFDLTKDVCNSSEWGLAELKMRHEKMKTQLKKLWLVEGHHHHHH", "soluble on expression in E. coli": "soluble"}, {"sequence": "MSLEARVLTGAALEARLDEVARLRIAVFRDWPYLYEGSMDYERSYLSTYRTSPGAILVGAFDGDRLVGASTGTPMEDHAEDFAAAFARTGLPLDEIFYCAESVLLPDYRGHGMGHRFFDLREAHARALGRRHSAFCSVIRPEDHPLRPAAARSNEPFWRKRGYAPLPGVVAHYGWTDVGEERETQKPLQFWIRDL", "soluble on expression in E. coli": "not soluble"}, {"sequence": "MSLEDFAESEGGVKKKIPISLVTIRSAKLFDIPFIMRIEQASFREKYPRGLFLTFLESNPDTFLVAEYNGKVIGYVMGYLRPDMEGHIMSIAVDPNYRGNGIGKALMIAVINKLFKKGARWIGLEVRVSNVIAINLYKKLGFKITKRIYSYYSDGEDAFYMILTPEDWKRVNLEEGHHHHHH", "soluble on expression in E. coli": "soluble"}, {"sequence": "MSLEGFIEDASVSLGLRNLYFNRDFRQPGAAQSKQEEWAQGFLLQAKSGYTQGTLGLGVELIGQLGLKLDSSPDRAGSGLLPRHADGRAADDYARLGVAPKLKLSNTELKLGELLPELPILLRNDGRLLPQTFQGGMLTSREIAGLTLHGGQMRSLSQRNSSDHQDLSVDGRGGAFSDRFDYLGAEYRFNAERSQVGLWQARLQDIYRQDYYSLSHKQSFGGWRLGASVGLFDTRDEGAAKLGELENRALTGFFSATRGGHSLGAGYQRMYGDDGMLYIAGTSTPLVNDIQVRNFTSAGERSWQLRYDYDFVALGIPGLTAMARYASGAHARTKAMDDGRAWERDVDVAYVIQSGPLKNLGLRWRNAMLRSNHAADVDENRLILSYSLPLLEGHHHHHH", "soluble on expression in E. coli": "soluble"}, {"sequence": "MSLEGGKGPRLRDFLSGSLATWALGLAGLVGEAEDSEGEPLWLEKRFLRLSDGALLLRVLGIIAPSSRGGPRMLRGLDGPAAWRVWNLNHLWGRLRDFYQEELQLLILSPPPDLQTLGFDPLSEEAVEQLEGVLRLLLGASVQCEHRELFIRHIQGLSLEVQSELAAAIQEVTQPGAGVVLALSGPDPGELAPAELEMLSRSLMGTLSKLARERDLGAQRLAELLLEREPLCLRPEAPSREGHHHHHH", "soluble on expression in E. coli": "soluble"}, {"sequence": "MSLEKHNEHKTLNHKSSKEKDQITNRLKRIEGQVRGIQNMVENDRYCVDILVQISAVQAAMKNVALHLLEDHAHHCVADAIKSGDGEQAISELLDVFKKFTKSEGHHHHHH", "soluble on expression in E. coli": "soluble"}, {"sequence": "MSLEMNRYLSFTLFTGLSLLTTIPIEAYTLNPNKTATSILQTNVIEVRSITSVQPIVIYCPVGTVPQLPYQVWVTYSDGQGEYRQTKWSNSALSTEQSEADDKVYPIGSQYTINGFIIGDDTTENGYPITAKIEVVDTKNTISPKLIAHTIPLNNVKINGNNRLTSNRDLAIKEIISWDVSQQLYNYRDTYGLSTEGYTRSDGWDSPETKLKGHGSGHYMSALALAYAAATNPSHKEILRRNITRMVNELRECQERTFVWSEELGRYLEARDFAPEEELKKMKGTWEAFDEHKTKWATYGYGYLNAIPPHHPALIEMYRAYNNSDWVWAPYYSIHKQLAGLIDIATYMDDKSIADKALLIAKDMGLWVWNRMHYRTYVKKDGTQEERRTHPGNRYEMWNMYIAGEVGGMGESLARLSEMVSAPEEKARLIEASNCFDSPAFYEPLSKNIDDIRNRHANQHIPMIIGALRSYLSNNDTFYYHVSHNFWNLIQGRYRYSTGGVGNGEMFRQPYTQIVSMAMNGVSEGESHSNPHINETCCAYNLLKLTKDLNCLNPDDARYMDYYERTLYNQIIGSLHPEHHQTTYQYAVGLNASKPWGNETPQSTCCGGTGSENHVKYQEATYFVSDNTLWVALYMPTTLHWEEKNITLQQECLWPAKSSTIKVTAGEARFAMKLRVPYWATDGFDVKLNGISIATHYQPCSYAVIPTRQWKENDIVEITMPFTKHIDYGPDKLPAEIASKDGHQLETAWVGTLMHGPFAMTATDITNWTEATLNIDSRLASITVVEPNGPQTGTTGNLYTLMQGGRTFQPDYYRHDHTTHYFRINHIKDPTEGHHHHHH", "soluble on expression in E. coli": "soluble"}]}]}
